# Experimental data from patent US20260008840A1 (ALZPATH, published 2026).
# Substitutions are numbered along the chain they refer to.
# B1: Antibody 2 (antibody, V domains shown)
# VH: QSVEESGGRLVTPGTPLTLTCTVSGFSLSSYAMIWVRQAPGKGLEWIGFISRSGITYYASWAKGRFTISKTSTTVDLKMTSLTTEDTATYFCAREFGAVGSDYYRDAFNLWGPGTLVTVSS
# VL: DIVMTQTPASVEAAVGGTVTINCQASESINSWLSWYQQKPGQPPNLLIYRASTLASGVPSRFSGGGSGTEYTLTISDLECADAVTYYCQSYYEEDGIGYAFGGGTEVVVEG
# notes: also called 30H10L2
# B2: Antibody 5 (antibody, V domains shown)
# VH: B1 VH with R9G, T15G, P16T, S30N, I34S, M79I, L82P, T89A, F108L, N109R
# VL: DIVMTQTPSSVSAAVGGTVTIKCQASQSIGSNLAWYQQKPGQPPKLLIYGASTLESGVPSRFKGSGSGTEYTLTISDLECADAATYYCQSYYEGSDIGYAFGGGTEVVVEG
# notes: also called 62H10L7
# B3: Antibody 6 (antibody, V domains shown)
# VH: QSLEESGGRLVTPGTPLTLTCTVSGIDLSTHAMTWVRQAPGKGLEWIGVINPSGSAYYATWVNGRFTISKTSTTVDLKITSPTTGDTAKYFCARDYITAGDYYMDAFDPWGPGTLVTVSS
# VL: DIVMTQTPASVSAAVGGTVTIKCQASQSISNQLSWYQQKSGQPPKLLIYRASTLASGVPSRFKGSGSGTEFTLTISDLECADAATYYCQQGYNRDNVDNLFGGGTEVVVKG
# notes: also called 71H1L2
# Tests used:
# Bio-pt655 (phospho T217) = assay: indirect ELISA: biotinylated peptide on streptavidin plate, antibody titrated, peroxidase tracer antibody, TMB, OD450-630nm; panel 'Bio-pt655 (phospho T217)'
# Description: Tau antibodies described herein that detect phosphorylated Tau were tested in ELISA assays. […] Briefly, streptavidin beads were bound to a plate and biotinylated peptide was added to the plates under conditions allowing for biotin-streptavidin binding. […] This was the target peptide. After binding of the synthetic peptide to the plate by the formation of the biotin-streptavidin complex, Tau antibodies were added to the plates under conditions allowing for antibody-target peptide binding. […] After binding, plates were washed to remove any unbound tracer antibody and plates next had TMB ELISA Peroxidase chromogenic substrate (3, 3′, 5, 5′-Tetramethylbenzidine) added to visualize antibody reactivity in indirect ELISA experiments. Antibody sample binding was quantitated using an ELISA microplate reader.
# PT3 corresponds to a mouse anti-phospho (T212/T217) Tau selective antibody (Janssen Biotech Inc.). 30H10L2 corresponds to Antibody 2 described herein. 71H1L2 corresponds to Antibody 6 described herein. 62H10L7 corresponds to Antibody 5 described herein.
# Adx-pt655 = assay: capture ELISA: 30H10L2 bound to the plate, biotinylated peptide titrated (the concentration is that of Adx-pt655), streptavidin-peroxidase, TMB, OD450-630nm
# Excerpt: In FIG. 25, a diagram of an assay using Antibody 2 to detect capture of particular Tau peptides is depicted. In this assay, Antibody 2 is bound to a plate and sample wells from the plate are subjected to various biotinylated peptides under conditions conducive to forming specific antibody-ligand interactions. Samples are then washes to remove excess unbound biotinylated peptide. Streptavidin beads conjugated to peroxidase and then added to the samples to allow biotin-streptavidin complexes to form on peptide bound antibodies. TMBred substrate is then added and samples are measured for colorimetric development using an ELISA plate reader. […] Antibody 5 and Antibody 6 tested by indirect ELISA under the same conditions using the same Tau peptides yielded no specific dose-dependent reactivity toward the Tau peptides tested.
# [1] = biological target: T1, Tau in brain lysate samples from AD patients (human, UniProt P10636-8 2-441, limits assumed); assay: Western blot of brain lysates
# T1 construct: A mixture of isoforms; The phosphorylation state was not defined by the experiment; also called different length isoforms of Tau in AD samples
# Description: (§1) In FIG. 26, Western blots were used to assess binding of various antibodies to brain lysate samples from AD patients and Control subjects. Protein ladders were run in lanes 1 and 10. Phosphatase treated pTau loaded in an amount of 0.05 ug was run in lane 2. Full-length Tau (Tau411) loaded in an amount of 0.05 ug was run in lane 3. Lanes 4-6 contain samples from different Control subjects with a dilution factor of 5. Lanes 7-9 contain samples from different AD subjects with a dilution factor of 5.
# [2] = biological target: T2, Tau in brain lysate samples from Control subjects (human, UniProt P10636-8 2-441, limits assumed); assay: Western blot of brain lysates
# T2 construct: A mixture of isoforms; also called different length isoforms of Tau in control samples
# Description: as §1
# T2 sequence (P10636 other isoform, or with tags, fused parts or gaps limits assumed): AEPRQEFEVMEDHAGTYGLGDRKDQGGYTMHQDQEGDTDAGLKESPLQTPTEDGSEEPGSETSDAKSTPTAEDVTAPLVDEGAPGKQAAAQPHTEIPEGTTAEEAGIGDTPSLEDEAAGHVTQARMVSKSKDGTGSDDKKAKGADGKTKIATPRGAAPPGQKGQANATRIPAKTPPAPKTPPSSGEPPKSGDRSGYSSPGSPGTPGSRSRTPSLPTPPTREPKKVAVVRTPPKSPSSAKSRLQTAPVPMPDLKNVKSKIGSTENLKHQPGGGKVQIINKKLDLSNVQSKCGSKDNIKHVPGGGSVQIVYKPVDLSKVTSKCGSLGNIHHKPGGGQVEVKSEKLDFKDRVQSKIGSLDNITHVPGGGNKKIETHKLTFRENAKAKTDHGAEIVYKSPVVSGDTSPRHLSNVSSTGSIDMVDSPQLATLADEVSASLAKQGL
# T1 sequence (P10636 other isoform, or with tags, fused parts or gaps limits assumed): as above
Binder,EC50 (read off the curve) (Bio-pt655 (phospho T217)) [ng/mL],EC50 (read off the curve) (Adx-pt655) [ng/mL],binding result [1],binding result [2]
B1,~200,~400,–,–
B2,–,–,no binding (tested: DF 5),no binding (tested: DF 5)
B3,–,–,no binding (tested: DF 5),no binding (tested: DF 5)
